Experiments:
cynomolgus NaPi2b = assay: Flow cytometry binding to HEK293-6e cells transfected with cynomolgus NaPi2b (Example 5); settings: transfected HEK293-6e cells
Procedure: (§1) The binding cross-reactivity of humanized antibody variant v29456 to human, cynomolgus and mouse NaPi2b was assessed by flow cytometry using HEK293-6e transfected cells.
(§2) Briefly, HEK293-6e cells were transfected for ˜24 hours to transiently express human NaPi2b, cynomolgus or mouse NaPi2b, at 1 μg of DNA per 1 million cells. Following transfection, 50,000 cells per well were seeded in V-bottom 96-well plates and incubated with 200 nM of primary antibody for 18-24 hours at 4° C. to prevent internalization. Post-incubation, cells were washed and stained with anti-Human IgG Fc AF647 conjugate (Jackson Immuno Research Labs, West Grove, PA, Cat. No. 109-605-098, Lot. No. 124868) at 4° C. for 1 hour. Following staining and washing, fluorescence was detected by flow cytometry on BD LSRFortessa™ Cell Analyzer (BD Biosciences, Franklin Lake, NJ) with 10,000 minimum events collected per well. The AF647/APC-A GeoMean (fluorescence signal geometric mean, proportional to anti-Human AF647 binding) was calculated for the live singlet cell population for each primary antibody using FlowJo™ v8 software (BD Biosciences, Franklin Lake, NJ). The Bmax and Kd of each primary antibody were calculated using GraphPad Prism Version 9 (GraphPad Software, San Diego, CA)

mouse NaPi2b = target: T1, mouse NaPi2b (Mus musculus, UniProt Q9DBP0); assay: Flow cytometry binding to HEK293-6e cells transfected with mouse NaPi2b (Example 5); settings: transfected HEK293-6e cells, 18-24 hours at 4° C.
T1 construct: expressed in transfected cells; host or cells: HEK293-6e
T1 sequence (Q9DBP0 1-697): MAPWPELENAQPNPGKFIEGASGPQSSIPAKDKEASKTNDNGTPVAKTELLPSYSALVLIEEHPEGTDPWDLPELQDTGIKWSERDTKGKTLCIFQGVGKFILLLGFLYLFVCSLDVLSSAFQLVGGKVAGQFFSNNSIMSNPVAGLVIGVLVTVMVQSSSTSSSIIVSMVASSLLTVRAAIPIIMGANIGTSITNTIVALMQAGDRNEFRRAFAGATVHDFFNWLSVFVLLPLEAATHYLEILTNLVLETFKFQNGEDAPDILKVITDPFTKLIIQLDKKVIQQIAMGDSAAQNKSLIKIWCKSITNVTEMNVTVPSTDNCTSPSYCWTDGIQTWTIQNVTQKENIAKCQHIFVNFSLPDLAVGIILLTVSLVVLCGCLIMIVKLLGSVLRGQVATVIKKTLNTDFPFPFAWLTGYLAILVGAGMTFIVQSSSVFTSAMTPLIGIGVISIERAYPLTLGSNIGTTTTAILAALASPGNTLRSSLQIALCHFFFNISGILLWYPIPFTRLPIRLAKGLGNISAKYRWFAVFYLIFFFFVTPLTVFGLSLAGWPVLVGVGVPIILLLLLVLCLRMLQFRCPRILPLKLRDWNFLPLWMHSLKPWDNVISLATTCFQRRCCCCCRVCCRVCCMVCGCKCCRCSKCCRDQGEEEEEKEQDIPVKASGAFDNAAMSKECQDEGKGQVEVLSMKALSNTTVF
Procedure: as §1, §2

[1] = target: T2, NaPi2b expressed on IGROV-1 cells (Homo sapiens, UniProt O95436); assay: Cellular binding to IGROV-1 cells by flow cytometry (Example 19); settings: NB = no binding (apparent Kd >150 nM)
T2 construct: IGROV-1 cells express endogenous NaPi2b at a high level; endogenous in cells; host or cells: IGROV-1
T2 sequence (O95436 1-690): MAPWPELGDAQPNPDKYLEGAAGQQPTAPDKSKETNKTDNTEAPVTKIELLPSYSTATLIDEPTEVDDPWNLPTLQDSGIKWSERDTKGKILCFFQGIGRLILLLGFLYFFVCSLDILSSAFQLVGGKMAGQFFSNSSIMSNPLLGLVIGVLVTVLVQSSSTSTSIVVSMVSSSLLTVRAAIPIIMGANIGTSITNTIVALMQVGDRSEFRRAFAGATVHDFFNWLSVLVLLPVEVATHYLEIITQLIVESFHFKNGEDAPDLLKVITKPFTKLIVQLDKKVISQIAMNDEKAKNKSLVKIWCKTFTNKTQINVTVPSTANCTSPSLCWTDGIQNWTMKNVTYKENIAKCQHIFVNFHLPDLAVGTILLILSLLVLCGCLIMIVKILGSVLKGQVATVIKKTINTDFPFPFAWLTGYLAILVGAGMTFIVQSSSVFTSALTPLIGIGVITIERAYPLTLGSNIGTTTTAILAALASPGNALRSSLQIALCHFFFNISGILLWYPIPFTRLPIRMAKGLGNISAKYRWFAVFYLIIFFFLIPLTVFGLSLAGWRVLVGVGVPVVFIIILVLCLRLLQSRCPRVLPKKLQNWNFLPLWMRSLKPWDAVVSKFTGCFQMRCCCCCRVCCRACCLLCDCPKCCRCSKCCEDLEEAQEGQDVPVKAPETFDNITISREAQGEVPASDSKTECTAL
Procedure: Briefly, cells were seeded at 50,000 cells/well in conical-bottom 96-well plates and treated with test antibody for 24 hours at 4° C. to prevent internalization. Palivizumab (anti-RSV antibody, v22277) was included as a negative control. […] Following incubation, cells were washed and stained with anti-Human IgG Fc AF647 conjugate (Jackson Immuno Research Labs, West Grove, PA; Cat. No. 109-605-098) at 4° C. for 30 min. Following incubation and washing, fluorescence was detected by flow cytometry on a BD LSRFortessa™ Cell Analyzer (BD Biosciences, Franklin Lake, NJ) with 1,000 minimum events collected per well. The AF647/APC-A GeoMean (fluorescence signal geometric mean, proportional to anti-Human AF647 binding) was calculated for the live cell population using FlowJo™ Version 10.8.1 (BD Biosciences, Franklin Lake, NJ) and plotted for each test antibody using GraphPad Prism Version 9 (GraphPad Software, San Diego, CA).
The ability of the humanized antibody variants v38591 and v29456 to bind to NaPi2b expressed on cells was assessed on endogenous NaPi2b-expressing tumor cell lines IGROV-1 (ovarian adenocarcinoma) and TOV-21G (ovarian carcinoma) by flow cytometry. IGROV-1 and TOV-21G cells express endogenous NaPi2b at high and moderate levels, respectively, as described in Example 10.
Cellular binding was performed according to methods described in Example 13.

Sequence of cynomolgus NaPi2b (as listed by the source): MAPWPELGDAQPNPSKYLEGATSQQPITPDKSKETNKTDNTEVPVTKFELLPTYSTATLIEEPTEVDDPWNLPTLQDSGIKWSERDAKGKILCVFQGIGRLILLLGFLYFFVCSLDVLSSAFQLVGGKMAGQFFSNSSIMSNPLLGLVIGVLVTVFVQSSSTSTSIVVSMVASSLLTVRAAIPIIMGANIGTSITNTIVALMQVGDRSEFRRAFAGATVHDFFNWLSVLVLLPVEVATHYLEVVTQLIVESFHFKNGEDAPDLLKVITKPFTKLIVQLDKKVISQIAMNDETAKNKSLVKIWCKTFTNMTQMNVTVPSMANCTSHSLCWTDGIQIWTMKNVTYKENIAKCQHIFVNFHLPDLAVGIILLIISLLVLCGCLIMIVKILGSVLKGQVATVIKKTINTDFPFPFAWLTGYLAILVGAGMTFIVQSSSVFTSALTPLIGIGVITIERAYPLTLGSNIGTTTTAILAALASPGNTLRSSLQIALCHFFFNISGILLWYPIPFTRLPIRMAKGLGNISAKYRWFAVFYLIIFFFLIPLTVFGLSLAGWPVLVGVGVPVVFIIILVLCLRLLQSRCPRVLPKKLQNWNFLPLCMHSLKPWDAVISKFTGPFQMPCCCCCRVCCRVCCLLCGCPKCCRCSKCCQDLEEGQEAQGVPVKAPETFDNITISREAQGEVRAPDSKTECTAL

B1: v29456: humanized anti-NaPi2b IgG1/kappa antibody H1L2; VH SEQ ID NO:24, VL SEQ ID NO:29 (antibody, V domains shown)
VH: QVQLVQSGAEVKKPGASVKVSCKASGFTFTSYNVHWVRQAPGQGLEWMGAISPGNGDLSYAQKFQGRVTMTRDTSTSTVYMELSSLRSEDTAVYYCARGRTGMGAVDYWGQGTLVTVSS
VL: DVQMTQSPSSLSASVGDRVTITCRASQDVYSYLNWYQQKPGKAVKLLIYYTSRLQSGVPSRFSGSGSGTDYTLTISSLQPEDFATYYCQQYNIFPWTFGQGTKLEIK
modifications: v29452, v29456, v29460 VH (H1); v29453, v29454, v29455, v29456 VL (L2)
apparent Kd on cynomolgus NaPi2b, fold lower than v18992 (MX35) (cynomolgus NaPi2b): 10 fold
Bmax (APC-A GeoMean), Cyno NaPi2b (cynomolgus NaPi2b; 18-24 hours at 4° C.): 2,006 APC-A GeoMean
Kd (cynomolgus NaPi2b; 18-24 hours at 4° C., highest antibody concentration 200 nM, read-out: Apparent Kd (nM), Cyno NaPi2b): 3.2 nM
Bmax (APC-A GeoMean), Ms NaPi2b (mouse NaPi2b): 2,062 APC-A GeoMean
Kd (mouse NaPi2b; highest antibody concentration 200 nM, read-out: Apparent Kd (nM), Ms NaPi2b): 10.6 nM
Bmax (MFI) [1]: 20,096 MFI
Curve Hill Slope (h) [1]: 1.1
Kd [1]: 1.28 nM
